Source: US20180244783A1, “COMBINATION THERAPY FOR TREATMENT OF DISEASE” (OncoMed Pharmaceuticals, Inc., priority 2015, published 2018)

B1: 18R5: anti-FZD IgG2 antibody binding FZD1, FZD2, FZD5, FZD7, FZD8; heavy chain SEQ ID NO:11, light chain SEQ ID NO:12 (antibody)
heavy: EVQLVESGGGLVQPGGSLRLSCAASGFTFSHYTLSWVRQAPGKGLEWVSVISGDGSYTYYADSVKGRFTISSDNSKNTLYLQMNSLRAEDTAVYYCARNFIKYVFANWGQGTLVTVSSASTKGPSVFPLAPCSRSTSESTAALGCLVKDYFPEPVTVSWNSGALTSGVHTFPAVLQSSGLYSLSSVVTVPSSNFGTQTYTCNVDHKPSNTKVDKTVERKCCVECPPCPAPPVAGPSVFLFPPKPKDTLMISRTPEVTCVVVDVSHEDPEVQFNWYVDGVEVHNAKTKPREEQFNSTFRVVSVLTVVHQDWLNGKEYKCKVSNKGLPAPIEKTISKTKGQPREPQVYTLPPSREEMTKNQVSLTCLVKGFYPSDIAVEWESNGQPENNYKTTPPMLDSDGSFFLYSKLTVDKSRWQQGNVFSCSVMHEALHNHYTQKSLSLSPGK
light: DIELTQPPSVSVAPGQTARISCSGDNIGSFYVHWYQQKPGQAPVLVIYDKSNRPSGIPERFSGSNSGNTATLTISGTQAEDEADYYCQSYANTLSLVFGGGTKLTVLGQPKAAPSVTLFPPSSEELQANKATLVCLISDFYPGAVTVAWKADSSPVKAGVETTTPSKQSNNKYAASSYLSLTPEQWKSHRSYSCQVTHEGSTVEKTVAPTECS
modifications: Heavy chain amino acid sequence without predicted signal sequence; Light chain amino acid sequence without predicted signal sequence

How the values were obtained:
B16F10 melanoma = B16F10 melanoma tumor growth in mice; type: in vivo; conditions: B16F10 melanoma in C57b16/J mice; vs control antibody (Hamster IgG); 18R5 45 mg/kg Q2W, 54F28 50 mg/kg Q2W, anti-CTLA-4 (4F10-11) 10 mg/kg 3QW; n=10
Protocol: B16F10 melanoma cells were implanted into the rear flanks of C57b16/J mice. When tumors reached a mean tumor volume of ˜100 mm^3 as measured by electronic caliper, mice were grouped and treated with a control antibody (Hamster IgG, 10 mg/kg, 3QW), 18R5 (45 mg/kg, Q2W), anti-CTLA-4 (4F10-11, 10 mg/kg, 3QW), 54F28 (50 mg/kg, Q2W), or a combination of 18R5+ anti-CTLA-4 or 54F28+ anti-CTLA-4. […] Data shown represents the mean ±SEM (n=10).

B16F10 target cells = test: T cell cytotoxicity, calcein release from B16F10 target cells; type: in vivo, mouse; conditions: splenocytes of treated B16F10 tumor-bearing mice, cultured 6 days with mgp100 peptide; effector:target 25:1; vs Hamster IgG; FIG. 2B
Protocol: To measure changes in T cell toxicity, the mouse melanoma cell line B16F10 was cultured in DMEM culture medium supplemented with 10% (v/v) fetal bovine serum (FBS), 2 mM L-glutamine, and 100 U/mL penicillin at 37° C. in a humidified atmosphere of 5% CO2. Total splenocytes from were cultured for 6 days in RPMI 1640 medium supplemented with 10% FBS, 2 mM L-glutamine, 100 U/mL penicillin, and 1 μg/mL mgp100 peptide (Anaspec). B16F10 target cells were labeled with 10 μM calcein AM (Life Technologies) for 1 hour at 37° C. and then combined with the splenocytes at an effector:target ratio of 25:1. Following a four-hour incubation at 37° C., cell-free supernatants were harvested and calcein release was quantified on a fluorometer at an excitation of 485 nm and an emission of 535 nm. The percentage of specific cell lysis was determined as: % lysis=100×(ER-SR)/(MR-SR), where ER, SR, and MR represent experimental, spontaneous, and maximum calcein release, respectively. Spontaneous release is the fluorescence emitted by target cells incubated in media alone (i.e., in the absence of effector cells), while maximum release is determined by lysing target cells with an equal volume of 10% SDS. For all groups, p<0.05 vs. Hamster IgG.

B16F1 melanoma cells = test: B16F1 melanoma tumor growth with GVAX, anti-CTLA-4 and anti-PD-L1; type: in vivo; conditions: C57BL6J mice, murine chimera 18R5 added to anti-CTLA-4 (9D9) + anti-PD-L1 (10F.9G2), compared to these antibodies without 18R5, FIGS. 3A-3D
Protocol: The effect of the anti-Fzd antibody, OMP-18R5, on melanoma cell line tumor growth was tested animals receiving the combination of anti-CTLA-4 and anti-PD-L1 antibodies. In these experiments, ten thousand B16F1 melanoma cells were injected subcutaneously into C57BL6J mice. On days 4, 7, and 10 post-implantation, “GVAX” tumor vaccine was administered by the injection of 2 million mitomycin C-treated cells of a B16F1 subclone stably transfected with a plasmid encoding m-GM-CSF (with GM-CSF expression confirmed by ELISA), as previously described by Curran and Allison, Cancer Res 69:7747, 2009. Anti-CTLA-4 clone 9D9 (BioXCell; West Lebanon, N.H.) was dosed on days 5, 8, and 12. Anti-PD-L1 clone 10F.9G2 (BioXCell) was dosed on days 5, 8, 12, 14, 19, 22, and 26, and either 1B7.11 isotype or murine chimera 18R5 were administered days 5, 12, 19, and 26 following parental B16F1 cell implantation.

B16F1 tumors = test: T-cell tumor infiltration by flow cytometry (FACS); type: in vivo, mice; conditions: compared to anti-CTLA-4 + anti-PD-L1 without 18R5 (or control antibodies)
Protocol: The change is T-cell tumor infiltration was also measured. Here, B16F1 tumors were isolated from control antibody, anti-CTLA-4 and anti-mouse PD-L1 combination; and anti-mouse Fzd7 (18R5)+anti-mouse anti-CTLA-4+ anti-mouse PD-L1 combination antibody-treated mice. Single cell suspensions were acquired from 4-6 independently treated tumors and were stained for tumor infiltrating immune cells using fluorescently-labeled anti-CD45, anti-CD4, and anti-CD8 antibodies. Flow cytometry analysis (FACS) was performed and the relative percentage populations of CD45+/CD4+ and CD45+/CD8+ T cells are shown.

splenocytes = test: ELISpot cytokine secretion assay of splenocytes (hgp100 peptide); type: in vivo, mice; conditions: splenocytes with 1 μg/ml hgp100 peptide, 18R5 added to anti-CTLA-4 + anti-PD-L1 therapy
Protocol: Using the ELISpot cytokine secretion assay, secretion of IFN-gamma and IL-2 was measured following 18R5 treatment. In these assays, splenocytes were harvested from a minimum of four mice per group, filtered, and the red blood cells lysed and re-suspended in RPMI+10% FBS+penn/strep at a concentration of 10^6 cells/ml in the presence of 1 μg/ml hgp100 peptide. Cells were plated on pre-coated ELISpot plates, incubated overnight and processed according to manufacturer's instructions (MabTech, Cincinnati, Ohio). Developed plates were read on a BioSys BioReader 6000-F b. The results from this assay are shown in FIG. 4A (IFN-gamma) and FIG. 4B (IL-2). Values shown are total optical density. As shown in these figures, IFN-gamma and IL-2 were increased by addition of 18R5 therapy.

Molecule	anti-tumor growth vs control (B16F10 melanoma)	T cell cytotoxicity (specific cell lysis) (B16F10 target cells)	tumor growth (B16F1 melanoma cells)	CD4+ T cell tumor infiltration (CD45+/CD4+) (B16F1 tumors; FIG. 6A)	CD8+ T cell tumor infiltration (CD45+/CD8+) (B16F1 tumors; FIG. 6B)	IFN-gamma secretion (ELISpot, total optical density) (splenocytes; FIG. 4A)	IL-2 secretion (ELISpot, total optical density) (splenocytes; FIG. 4B)
54F28: FZD8-Fc soluble receptor, SEQ ID NO:41 (SEQ ID NO:45 with signal sequence)	significant anti-tumor growth	increased	–	–	–	–	–
B1	–	increased	decreased	increased	increased	increased	increased
